Results: US10772928B2, “Modulation and detection of a neuronal alternative splicing regulatory network for treatment and diagnosis of neurological disorders” (The Governing Council of the University of Toronto, priority 2014, dated 2020)
Blank lines part the entries; values can stand above or below the molecule they belong to.

What was measured:
[1] = target: T1, nSR100 (Mus musculus, UniProt Q8BKA3); test: AP-MS nSR100 interaction partners from mouse N2A cells (Table 5); assay type: binding; conditions: for AvgP (average of the SAINT scores) / MaxP (maximal SAINT score): bait Srrm4; for FoldChange between the prey Avg spectra of the bait and control purifications: bait Srrm4, 0.1 added to prevent division by 0; for AvgSpec (average number of spectra per replicate): bait Srrm4, 2 replicates; for Spectra (number of spectra for the prey in the purification of the bait): AP-MS; for SpecSum: bait Srrm4, sum of spectra over 2 replicates
T1 construct: host or cells: mouse N2A cells
T1 sequence (Q8BKA3 1-608): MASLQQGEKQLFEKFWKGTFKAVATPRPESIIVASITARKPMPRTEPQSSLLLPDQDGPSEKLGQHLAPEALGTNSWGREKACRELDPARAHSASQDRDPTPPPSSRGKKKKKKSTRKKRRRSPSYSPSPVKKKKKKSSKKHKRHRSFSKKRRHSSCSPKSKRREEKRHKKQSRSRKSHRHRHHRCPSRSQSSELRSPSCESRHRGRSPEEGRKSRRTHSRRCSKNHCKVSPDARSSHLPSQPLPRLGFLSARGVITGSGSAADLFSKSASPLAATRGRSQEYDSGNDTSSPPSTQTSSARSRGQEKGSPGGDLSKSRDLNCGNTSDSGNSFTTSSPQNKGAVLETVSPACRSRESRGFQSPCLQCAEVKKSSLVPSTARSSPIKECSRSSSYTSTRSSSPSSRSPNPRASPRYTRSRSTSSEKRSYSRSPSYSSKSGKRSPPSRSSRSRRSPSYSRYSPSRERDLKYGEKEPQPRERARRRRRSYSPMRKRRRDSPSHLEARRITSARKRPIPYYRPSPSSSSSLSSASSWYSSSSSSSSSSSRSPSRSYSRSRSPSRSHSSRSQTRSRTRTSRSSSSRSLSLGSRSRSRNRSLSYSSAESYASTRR
Description: By applying affinity purification coupled to mass-spectrometry (AP-MS), several interaction nSR100 partner proteins were detected that provide insight into mechanisms of post-translational regulation of nSR100 levels.

[2] = target: T1, nSR100; test: Regulation by nSR100: microexon inclusion level (PSI) by RNA-Seq in mouse N2A cells depleted of nSR100 (Table 2); assay type: cell-based; conditions: YES/NO
Description: A-H) Percent of neural-regulated exons within each length class that is affected at 15<|ΔPSI|<25 and |ΔPSI|>25 by (A) RBFOX1 knockdown in human neural precursor cells; (B) MBNL1 and MBNL2 double knockdown in human HeLa cells; (C) ESRP1 knockdown in human PNT2 cells; (D) nSR100/Srrm4 knockdown in mouse N2A cells; (E) Ptbp1 knockdown in mouse N2A cells; (F) Ptbp2 knockout in mouse cortex (P1 stage); (G) Ptbp2 knockout in mouse embryonic brain (18.5 days post-conception); and (H) Rbfox1 knockout. p values correspond to two-sided proportion tests of regulated versus non-regulated events. I) Expression of nSR100 in different isolated brain cell types (Zhang et al., 2014). Error bars indicate SEM. […]
An RNA-Seq analysis pipeline was developed to detect and quantify all AS event classes involving all hypothetically possible splice junctions formed by the usage of annotated and unannotated splice sites, including those that demarcate microexons. […]
A multi-module analysis pipeline was developed that uses RNA-Seq, expressed sequence tag (EST) and cDNA data, as well as gene annotations and evolutionary conservation, to assemble libraries of exon-exon-junctions (EEJs) for subsequent read alignment to detect and quantify AS events in RNA-Seq data. […] Alt3 or Alt5 events were quantified based on the fraction of reads supporting the usage of each alternative splice site. […]

[3] = bait Srrm4, biological replicate 1 (first number of the cell)
[4] = bait Srrm4, biological replicate 2 (second number of the cell)

B2: Dhx8 (protein, UniProt A2A4P0 1-1244, looked up)
ATP-dependent RNA helicase …: MAVAVAAAGVLMGSEPGPAEELAKLEYLSLVSKVCTELDNHLGINDKDLAEFVISLAEKNTTFDTFKASLVKNGAEFTDSLISNLLRLIQTMRPPAKPSTSKDPVVKPKTEKEKLRELFPVLCQPDNPSARTMLDEEDVKVAVDVLKELEALMPSAAGQEKQRDPEHRDRTKKKKRSRSRDRDRDRDRDRDRDRDRDRDRDKDRERDRDRERDRERDRERDHKRRHRSRSRSHSRTRERTKGKSRYRSRSRSQSPFKDRKDREKYGERNLDRWRDKHVDRPPPEEPAIGDIYNGKVTSIMQFGCFVQLEGLRKRWEGLVHISELRREGRVANVADVVSKGQRVKVKVLSFTGTKTSLSMKDVDQETGEDLNPNRRRNLVGETNEETSMRNPDRPTHLSLVSAPEVEDDSLERKRLTRISDPEKWEIKQMIAANVLSKEEFPDFDEETGILPKVDDEEDEDLEIELVEEEPPFLRGHTKQSMDMSPIKIVKNPDGSLSQAAMMQSALAKERRELKQAQREAEMDSIPMGLNKHWVDPLPDAEGRQIAANMRGIGMMPNDIPEWKKHAFGGNKASYGKKTQMSILEQRESLPIYKLKEQLVQAVHDNQILIVIGETGSGKTTQITQYLAEAGYTSRGKIGCTQPRRVAAMSVAKRVSEEFGCCLGQEVGYTIRFEDCTSPETVIKYMTDGMLLRECLIDPDLTQYAIIMLDEAHERTIHTDVLFGLLKKTVQKRQDMKLIVTSATLDAVKFSQYFYEAPIFTIPGRTYPVEILYTKEPETDYLDASLITVMQIHLTEPPGDILVFLTGQEEIDTACEILYERMKSLGPDVPELIILPVYSALPSEMQTRIFDPAPPGSRKVVIATNIAETSLTIDGIYYVVDPGFVKQKVYNSKTGIDQLVVTPISQAQAKQRAGRAGRTGPGKCYRLYTERAYRDEMLTTNVPEIQRTNLASTVLSLKAMGINDLLSFDFMDAPPMETLITAMEQLYTLGALDDEGLLTRLGRRMAEFPLEPMLCKMLIMSVHLGCSEEMLTIVSMLSVQNVFYRPKDKQALADQKKAKFHQTEGDHLTLLAVYNSWKNNKFSNPWCYENFIQARSLRRAQDIRKQMLGIMDRHKLDVVSCGKSTVRVQKAICSGFFRNAAKKDPQEGYRTLIDQQVVYIHPSSALFNRQPEWVVYHELVLTTKEYMREVTTIDPRWLVEFAPAFFKVSDPTKLSKQKKQQRLEPLYNRYEEPNAWRISRAFRRR
AvgP (average of the SAINT scores) [1]: 0.99
MaxP (maximal SAINT score) [1]: 1
FoldChange between the prey Avg spectra of the bait and control purifications [1]: 7.33
AvgSpec (average number of spectra per replicate) [1]: 11
Spectra (number of spectra for the prey in the purification of the bait) [1, 3]: 8
Spectra (number of spectra for the prey in the purification of the bait) [1, 4]: 14
SpecSum [1]: 22

B3: Eif4a3 (protein, UniProt Q91VC3 1-411, looked up)
Eukaryotic initiation factor …: MAANATMATSGSARKRLLKEEDMTKVEFETSEEVDVTPTFDTMGLREDLLRGIYAYGFEKPSAIQQRAIKQIIKGRDVIAQSQSGTGKTATFSVSVLQCLDIQVRETQALILAPTRELAVQIQKGLLALGDYMNVQCHACIGGTNVGEDIRKLDYGQHVVAGTPGRVFDMIRRRSLRTRAIKMLVLDEADEMLNKGFKEQIYDVYRYLPPATQVVLISATLPHEILEMTNKFMTDPIRILVKRDELTLEGIKQFFVAVEREEWKFDTLCDLYDTLTITQAVIFCNTKRKVDWLTEKMREANFTVSSMHGDMPQKERESIMKEFRSGASRVLISTDVWARGLDVPQVSLIINYDLPNNRELYIHRIGRSGRYGRKGVAINFVKNDDIRILRDIEQYYSTQIDEMPMNVADLI
AvgP (average of the SAINT scores) [1]: 0.99
MaxP (maximal SAINT score) [1]: 1
FoldChange between the prey Avg spectra of the bait and control purifications [1]: 3.82
AvgSpec (average number of spectra per replicate) [1]: 21
Spectra (number of spectra for the prey in the purification of the bait) [1, 3]: 18
Spectra (number of spectra for the prey in the purification of the bait) [1, 4]: 24
SpecSum [1]: 42

B4: Fip1l1 (protein, UniProt Q9D824 1-581, looked up)
Pre-mRNA 3'-end-processing …: MSAGEVERLVELSGGTGGDEEEEWLYGGPWDVHVHSDLAKDLDENEVERPEEENASANPPSGIEEEAAENGVAKPKVTETEDDSDSDSDDDEDDVHVTIGDIKTGAPQYGSYGTAPVNLNIKAGGRVYGNTGTKVKGVDLDAPGSINGVPLLEVDLDSFEDKPWRKPGADLSDYFNYGFNEDTWKAYCEKQKRIRMGLEVIPVTSTTNKITVQQGRTGNSEKEAALPSTKAEFTSPPSLFKTGLPPSRNSTSSQSQTSTASRKASSSVGKWQDRYGRAESPDLRRLPGAIDVIGQTITISRVEGRRRANENSNIQVLSDRSATEVDNNFSKPPPFFPPGAPPTHLPPPPFLPPPPTVSTAPPLIPPPGIPITVPPPGFPPPPGAPPPSLIPTIESGHSSGYDSRSARAFPYGNVAFPHLTSSAPSWPSLVDTTKQWDYYARREKDRDRDRERDRDRERERDRDRERERTRERERERDHSPTPSVFNSDEERYRYREYAERGYERHRASREKEERHRERRHREKEETRHKSSRSNSRRRHESEEGDSHRRHKHKKSKRSKEGKEAGSEPVPEQESTEAAPAE
Regulation by nSR100 [2]: NO (regulation may occur but does not meet a miminal threshold change of PSI≥10)
AvgP (average of the SAINT scores) [1]: 1
MaxP (maximal SAINT score) [1]: 1
FoldChange between the prey Avg spectra of the bait and control purifications [1]: 90
AvgSpec (average number of spectra per replicate) [1]: 9
Spectra (number of spectra for the prey in the purification of the bait) [1, 3]: 8
Spectra (number of spectra for the prey in the purification of the bait) [1, 4]: 10
SpecSum [1]: 18

Now from value to molecule:

AvgP (average of the SAINT scores) [1]: 0.99
MaxP (maximal SAINT score) [1]: 0.99
FoldChange between the prey Avg spectra of the bait and control purifications [1]: 10.5
AvgSpec (average number of spectra per replicate) [1]: 10.5
Spectra (number of spectra for the prey in the purification of the bait) [1, 3]: 11
Spectra (number of spectra for the prey in the purification of the bait) [1, 4]: 10
SpecSum [1]: 21
B1: Sf3a3 (protein, UniProt Q9D554 1-501, looked up)
Splicing factor 3A subunit 3: METILEQQRRYHEEKERLMDVMAKEMLTKKSTLRDQINSDHRTRAMQDRYMEVSGNLRDLYDDKDGLRKEELNAISGPNEFAEFYNRLKQIKEFHRKHPNEICVPMSVEFEELLKARENPSEEAQNLVEFTDEEGYGRYLDLHDCYLKYINLKASEKLDYITYLSIFDQLFDIPKERKNAEYKRYLEMLLEYLQDYTDRVKPLQDQNELFGKIQTDFEKKWDNGTFPGWPKETSSALTHAGAHLDLSAFSSWEELASLGLDRLKSALLALGLKCGGTLEERAQRLFSTKGKSLESLDTSLFAKNPKSKGTKRDTERNKDIAFLEAQIYEYVEILGEQRQLTHENVQRKQARTGEEREEEEEEQISESESEDEENEIIYNPKNLPLGWDGKPIPYWLYKLHGLNINYNCEICGNYTYRGPKAFQRHFAEWRHAHGMRCLGIPNTAHFANVTQIEDAVSLWAKLKLQKASERWQPDTEEEYEDSSGNVVNKKTYEDLKRQGLL

AvgP (average of the SAINT scores) [1]: 1
MaxP (maximal SAINT score) [1]: 1
FoldChange between the prey Avg spectra of the bait and control purifications [1]: 60
AvgSpec (average number of spectra per replicate) [1]: 6
Spectra (number of spectra for the prey in the purification of the bait) [1, 3]: 6|6
Spectra (number of spectra for the prey in the purification of the bait) [1, 4]: 6|6
SpecSum [1]: 12
B5: Prpf38b (protein, UniProt Q80SY5 2-542, looked up)
Pre-mRNA-splicing factor 38B: ANNSPALTGNSQPQHQAAAAVTQQQQQCGGGGGATKPAVSGKQGNVLPLWGNEKTMNLNPMILTNILSSPYFKVQLYELKTYHEVVDEIYFKVTHVEPWEKGSRKTAGQTGMCGGVRGVGTGGIVSTAFCLLYKLFTLKLTRKQVMGLITHTDSPYIRALGFMYIRYTQPPTDLWDWFESFLDDEEDLDVKAGGGCVMTIGEMLRSFLTKLEWFSTLFPRIPVPVQKNIDQQIKTRPRKIKKDGKEGIEEIDRHVERRRSRSPRRSLSPRRSPRRSRSRSHHREGHGSSSFDRELEREKERQRLEREAKEREKERRRSRSIDRGLDRRRSRSRERHRSRSRSRDRKGDRRDRDREREKENERGRRRDRDYDKERGSDRERDRERSRERSKEQRSRGDGEEKKHKEDKEDRRHRDDKKESKKKHSRSRSRERKHRSRSRNAGKRSRSRSKDKSSRHKNESKEKANKRSRSGSQGRTGSVEKRKREHSPSREKSRKRSRSQDRSHKREHNDSKDQSDRQDHQSSQSGEPESQEKEHKSKDETV
